Experimental data as given in paper PMC4252830 (Insect biochemistry and molecular biology, 2014).
Values belong to the molecule of their own block, whether it stands above or below them.

How the values were obtained:
[1] = target: T1, AgEH (epoxide hydrolase from Anopheles gambiae) (Anopheles gambiae, UniProt Q7PZL6); assay: inhibition of […],15-EET hydrolysis by recombinant AgEH in Sf-9 microsomes; format: biochemical
T1 sequence (Q7PZL6 1-340): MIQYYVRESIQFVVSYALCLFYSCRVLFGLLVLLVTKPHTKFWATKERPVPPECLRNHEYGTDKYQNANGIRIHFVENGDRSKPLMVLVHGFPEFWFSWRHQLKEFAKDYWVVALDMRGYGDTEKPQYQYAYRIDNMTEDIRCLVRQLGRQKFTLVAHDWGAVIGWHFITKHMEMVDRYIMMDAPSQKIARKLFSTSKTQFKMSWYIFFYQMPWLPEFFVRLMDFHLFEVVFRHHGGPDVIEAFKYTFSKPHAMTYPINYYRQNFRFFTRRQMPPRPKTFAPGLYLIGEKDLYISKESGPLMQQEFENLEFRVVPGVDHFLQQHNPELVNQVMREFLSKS

[2] = target: T1, AgEH (epoxide hydrolase from Anopheles gambiae); assay: % activity remaining on t-DPPO, recombinant AgEH in Sf-9 microsomes; format: cell-based; conditions: read-out: t-DPPO / 500nM
[3] = substrate: c1ccc(C[C@@H]2O[C@H]2c2ccccc2)cc1; format: biochemical, Anopheles gambiae
[4] = substrate: COC(=O)/C=C(\C)CC/C=C(\C)CC[C@H]1OC1(C)C; format: biochemical, Anopheles gambiae
[5] = substrate: CCCCC/C=C\CC1OC1CCCCCCCC(=O)O; assay: Michaelis-Menten kinetics, LC-MS/MS, recombinant AgEH in Sf-9 microsomes; format: biochemical, Anopheles gambiae
[6] = substrate: CCCCCC1OC1C/C=C\C/C=C\C/C=C\CCCC(=O)O; assay: as above; format: biochemical, Anopheles gambiae

IC50 [1]: ~60 nM
Molecule: O=C(O)CCCCCCCCCCCNC(=O)NC12CC3CC(CC(C3)C1)C2 [compound 1, 12-(3-adamantan-1-yl-ureido) dodecanoic acid]

Molecule: O=C(Nc1ccc(OC(F)(F)F)cc1)N[C@H]1CC[C@H](Oc2ccc(C(=O)O)cc2)CC1 [compound 2, trans-4-{4-[3-(4-trifluoromethoxy-phenyl)-ureido]-cyclohexyloxy}-benzoic acid]
activity at 0.5 µM [2]: 12.5%

B1: AgEH (epoxide hydrolase from Anopheles gambiae) (Anopheles gambiae) (protein)
chain: T1 sequence (Q7PZL6 1-340)
Km [3]: 30.5 ± 5.0 µM | Vmax [3]: 1.2 µmol/min/mg | Vmax/Km [3]: 41000 µL/min/mg | Km [4]: 9.8 ± 2.0 µM | Vmax [4]: 1.3 µmol/min/mg | Vmax/Km [4]: 130000 µL/min/mg | Km [5]: 7.0 ± 0.6 µM | Vmax [5]: 1.5 µmol/min/mg | Vmax/Km [5]: 210000 µL/min/mg | Km [6]: 3.0 ± 0.3 µM | Vmax [6]: 1.4 µmol/min/mg | Vmax/Km [6]: 460000 µL/min/mg
